The target in test [1] is PUUV Gn/Gc on virus-like particles (VLPs) (Puumala orthohantavirus, strain of the …, UniProt A0A0B4U5I0). The test is described as follows: ELISA.
Test [2] addresses PUUV Gn^H (head of Gn) (Puumala virus, UniProt P27312). The test can be described thus: crystal structure.
Test [3] concerns the target PUUV Gc ectodomain (Puumala virus, UniProt P27312). The test can be described thus: crystal structure.

Sequence of PUUV Gc ectodomain (P27312 659-1093): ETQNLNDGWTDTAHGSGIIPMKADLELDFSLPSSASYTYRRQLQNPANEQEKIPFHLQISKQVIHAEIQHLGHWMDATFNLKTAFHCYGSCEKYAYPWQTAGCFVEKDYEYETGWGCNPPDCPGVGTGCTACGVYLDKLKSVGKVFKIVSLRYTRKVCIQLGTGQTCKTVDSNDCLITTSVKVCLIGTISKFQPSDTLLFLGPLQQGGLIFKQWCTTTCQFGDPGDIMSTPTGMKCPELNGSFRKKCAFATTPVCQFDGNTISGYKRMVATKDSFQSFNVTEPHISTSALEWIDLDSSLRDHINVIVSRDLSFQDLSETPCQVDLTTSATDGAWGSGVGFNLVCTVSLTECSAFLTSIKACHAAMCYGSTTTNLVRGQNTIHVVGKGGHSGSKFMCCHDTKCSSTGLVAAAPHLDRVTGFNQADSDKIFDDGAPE
Sequence of PUUV Gn^H (head of Gn) (P27312 20-381): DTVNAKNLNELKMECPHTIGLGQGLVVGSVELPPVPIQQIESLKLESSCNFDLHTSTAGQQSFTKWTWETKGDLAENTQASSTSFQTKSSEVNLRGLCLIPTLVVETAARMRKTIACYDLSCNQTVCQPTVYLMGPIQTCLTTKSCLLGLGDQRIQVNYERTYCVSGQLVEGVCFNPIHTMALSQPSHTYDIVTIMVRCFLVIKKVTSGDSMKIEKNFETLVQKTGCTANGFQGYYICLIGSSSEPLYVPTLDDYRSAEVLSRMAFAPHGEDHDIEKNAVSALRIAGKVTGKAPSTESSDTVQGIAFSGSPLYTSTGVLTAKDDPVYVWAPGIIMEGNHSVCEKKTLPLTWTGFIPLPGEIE

B1: ADI-42898 monovalent antibody-binding fragment (Fab) (Fab, V domains shown)
VH: QVQLVESGGGVVQPGRSLRLSCAASGFTFSSYAMHWVRQAPGKGLEWVAVTWFDVSKKDYADSVKGRFTISRDNSKNTLYLQMNSLRAEDTAVYYCARNLIRYSGSYFPVHGMDVWGQGTTVTVSS
VL: DIVMTQSPLSLPVTPGEPASISCRSSQSLLHTYGYNCLDWYLQRPGQSPQLLISLGSYRASGVPDRFSGSGSGTDFTLKISRVEAEDVGVYYCMQALHPFTFGGGTKVEIK
Consider B1, for which the binding result in test [1] was “binds”.

B2: ADI-42898 (monoclonal antibody, IgG) (antibody, V domains shown)
VH: QVQLVESGGGVVQPGRSLRLSCAASGFTFSSYAMHWVRQAPGKGLEWVAVTWFDVSKKDYADSVKGRFTISRDNSKNTLYLQMNSLRAEDTAVYYCARNLIRYSGSYFPVHGMDVWGQGTTVTVSS
VL: DIVMTQSPLSLPVTPGEPASISCRSSQSLLHTYGYNCLDWYLQRPGQSPQLLISLGSYRASGVPDRFSGSGSGTDFTLKISRVEAEDVGVYYCMQALHPFTFGGGTKVEIK
As for B2, in test [1], the binding result is recorded as “binds”.

B3: ADI-42898 single-chain, variable domain fragment (scFv) (scFv, V domains shown)
VH: QVQLVESGGGVVQPGRSLRLSCAASGFTFSSYAMHWVRQAPGKGLEWVAVTWFDVSKKDYADSVKGRFTISRDNSKNTLYLQMNSLRAEDTAVYYCARNLIRYSGSYFPVHGMDVWGQGTTVTVSS
VL: DIVMTQSPLSLPVTPGEPASISCRSSQSLLHTYGYNCLDWYLQRPGQSPQLLISLGSYRASGVPDRFSGSGSGTDFTLKISRVEAEDVGVYYCMQALHPFTFGGGTKVEIK
As to B3, the binding result in test [2] and in test [3] was “binds” each time.
